In article PMC7025507:

Target: hStau1^55 SSM/RBD5 construct (human)
Test: SEC

stoichiometry N: 2
Substance: hStau1^55 SSM/RBD5 construct (domain or fragment)
